Test results taken from patent US20260055176A1 (SURFACE ONCOLOGY, published 2026).
Blank lines part the entries; values can stand above or below the binder they belong to.

Key:
recombinant human IL-27 [1] = biological target: T1, recombinant human IL-27 (human, UniProt Q14213 21-229; Q8NEV9 29-243); test: SPR (Biacore T200), hIL-27 immobilised on CM5, single cycle kinetics
T1 construct: Bought heterodimeric cytokine (R&D Systems); the whole exemplary entries for EBI3 and p28 are named here, signal peptides included; also called hIL-27; rhIL-27
T1 sequence 1: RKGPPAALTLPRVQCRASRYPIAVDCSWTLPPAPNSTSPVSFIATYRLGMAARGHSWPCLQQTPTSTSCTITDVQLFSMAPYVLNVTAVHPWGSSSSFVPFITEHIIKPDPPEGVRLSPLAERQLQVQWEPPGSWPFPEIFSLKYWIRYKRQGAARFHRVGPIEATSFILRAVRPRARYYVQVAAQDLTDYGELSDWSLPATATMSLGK
T1 sequence 2: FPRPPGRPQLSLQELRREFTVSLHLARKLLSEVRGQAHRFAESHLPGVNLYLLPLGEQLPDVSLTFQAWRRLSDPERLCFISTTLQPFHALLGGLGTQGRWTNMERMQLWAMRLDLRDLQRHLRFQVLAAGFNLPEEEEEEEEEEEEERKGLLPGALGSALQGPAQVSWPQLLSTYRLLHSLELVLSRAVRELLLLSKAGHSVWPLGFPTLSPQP
Method: The antibodies were further characterized by surface plasmon resonance (SPR). Kinetic experiments were performed on a Biacore T200 (GE Healthcare, Uppsala, Sweden). All experiments were run at 25° C. with HBS-P+running buffer (pH 7.4) (GE Healthcare, Little Chalfont, UK) using hIL-27 (R&D Systems, Abingdon, UK). Human IL-27 (hIL-27) antigen was captured on a CM5 chip to ˜ 16 RU. Immobilization was carried out at a protein concentration of 1 μg/mL in 10 mM acetate buffer pH 5.0. A three point, three-fold dilution range from 3.3 nM to 30 nM of antibody diluted in HBS-P+buffer without regeneration between each concentration was used. The association phase for the three injections of increasing concentrations of antibody was monitored for 75 seconds each time and a single dissociation phase was measured for 250 seconds following the last injection of antibody. Regeneration of the hIL-27 surface was conducted using a single injection of 2M MgCl₂ for 120s. Multiple repeats (n=4) of the chimeric antibody were performed throughout the assay to check the stability of the surface and analyte over the kinetic cycles.

recombinant human IL-27 [2] = biological target: T1, recombinant human IL-27; test: cell-based or functional assay
recombinant human IL-27 [3] = biological target: T1, recombinant human IL-27; test: MSD sandwich immunoassay: named antibody coated as capture (0.5 ug/mL), recombinant human IL-27 500 ng/mL, biotinylated SRF381 as detection, SULFO-TAG streptavidin
Method: The ability of anti-IL-27 antibodies to pair with the anti-p28 antibody SRF381 to detect recombinant human IL-27 was assessed by sandwich MSD Immunoassay. Briefly, MSD QUICKPLEX 96-well plates (Meso Scale Discovery L55XA) were coated with 50 μL/well anti-IL-27 antibodies (0.5 μg/mL diluted in PBS) sealed and incubated overnight at 4° C. Plates were washed 3 times with 150 μL/well of wash buffer (PBS+0.01% Tween). Plates were then blocked with 200 μL/well of blocking buffer (PBS+1% BSA+0.01% Tween) for 1 hour at room temperature (RT) with shaking. Blocking buffer was decanted, plates were washed 3 times with 150 μL/well of wash buffer, and 50 μL/well recombinant human IL-27 (R&D Systems 2526-IL/CF) (500 ng/mL diluted in blocking buffer) was added to each well for 2 hours at RT with shaking. Plates were washed 3 times with 150 μL/well of wash buffer, and 50 μL biotinylated SRF381 (diluted 0.5 μg/mL in blocking buffer) was added to each well for 1 hour at RT with shaking. […] Plates were washed 3 times with 150 μL/well of wash buffer and 150 μL of MSD read buffer (Meso Scale Discovery R92TC-1) (diluted to 2X in deionized water) was added to each well and plates were read on a MESO QUICKPLEX SQ120.

B1: Ab7.7 (antibody, human IgG1, kappa, V domains shown)
VH: EVKLVESGGGLVQPGGSLRLSCAASGFTFTSYSMSWVRQAPGKGLEWVAYISYDGGSAYYPDTVKGRFTISRDNSKKTLYLQMSSLKSEDTAMYYCARHGDYDDDDAMDYWGQGTSVTVSS
VL: DIQMTQSPSSLSASVGDRVTITCRASENIYSYLNWYQQKPGKAPKLLVYNAETLTEGVPSRFSGSGSGTDFTLTISSLQPEDFATYYCQHHYGTPLTFGQGTKLEIKR
notes: humanized, human IgG1 / kappa; Ab7-VL4 variant; also called Ab7-VH1-IgG1 + Ab7-VL4-Kappa
binding result (recombinant human IL-27 [1]): no binding (tested: 30 nM)

B6: SRF381 (antibody, V domains shown)
VH: EVQLVESGGGLVKPGGSLRLSCAASGFTFRSYGMNWVRQAPGKGLEWVSSISSSSSYIYYADSVKGRFTISRDNAKNSLYLQMNSLRAEDTAVYYCARDGGRTSYTATAHNWFDPWGQGTLVTVSS
VL: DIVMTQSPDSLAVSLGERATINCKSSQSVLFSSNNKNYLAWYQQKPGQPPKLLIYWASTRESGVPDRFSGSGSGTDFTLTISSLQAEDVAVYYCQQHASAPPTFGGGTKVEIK
IC50 of inhibition of IL-27-mediated phosphorylation of STAT1 in HUT-78 cells (recombinant human IL-27 [2]): 0.08 µg/mL
IC50 of inhibition of IL-27-mediated phosphorylation of STAT1 in U937 cells (recombinant human IL-27 [2]): 0.081 µg/mL
IC50 of inhibition of IL-27-mediated phosphorylation of STAT1 in pooled human PBMCs (recombinant human IL-27 [2]): 0.141 µg/mL

B7: SRF388 (antibody, V domains shown)
VH: EVQLVESGGGLVKPGGSLRLSCAASGFTFRSYGMNWVRQAPGKGLEWVSGISSSGSYIYYADSVKGRFTISRDNAKNSLYLQMNSLRAEDTAVYYCARDGGRTSYTATAHNWFDPWGQGTLVTVSS
VL: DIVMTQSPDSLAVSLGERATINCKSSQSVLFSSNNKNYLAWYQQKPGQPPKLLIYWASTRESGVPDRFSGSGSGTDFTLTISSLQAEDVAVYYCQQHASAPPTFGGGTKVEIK
IC50 of inhibition of IL-27-mediated phosphorylation of STAT1 in HUT-78 cells (recombinant human IL-27 [2]): 0.095 µg/mL
IC50 of inhibition of IL-27-mediated phosphorylation of STAT1 in U937 cells (recombinant human IL-27 [2]): 0.096 µg/mL
IC50 of inhibition of IL-27-mediated phosphorylation of STAT1 in pooled human PBMCs (recombinant human IL-27 [2]): 0.0583 µg/mL

B8: SRF605 (antibody, V domains shown)
VH: QVQLQESGPGLVKPSQTLSLTCTVSGGSISSGGYYWSWIRQHPGKGLEWIGNIYYSGSTYYNPSLKSRVTISVDTSKNQFSLKLSSVTAADTAVYYCARDGVYQPGAYYWGQGTLVTVSS
VL: DIQLTQSPSSVSASVGDRVTITCRASQGISSWLAWYQQKPGKAPKLLIYGASSLQSGVPSRFSGSGSGTDFTLTISSLQPEDFATYYCQQGVSFPITFGGGTKVEIKR
notes: also called SRF605-A; SRF605-B
binding result (recombinant human IL-27 [3]): binds

The next lines start with the values.

binding result (recombinant human IL-27 [1]): no binding (tested: 30 nM)
B2: Ab7.19 (antibody, human IgG1, kappa, V domains shown)
VH: EVQLVESGGGLVQPGGSLRLSCAASGFTFTSYSMSWVRQAPGKGLEWVAYISYDGGSAYYPDTVKGRFTISRDNSKNTLYLQMNSLRAEDTAVYYCARHGDYDDDDAMDYWGQGTLVTVSS
VL: DIQMTQSPSSLSASVGDRVTITCRASENIYSYLNWYQQKPGKAPKLLVYNAETLTEGVPSRFSGSGSGTDFTLTISSLQPEDFATYYCQHHYGTPLTFGQGTKLEIKR
notes: humanized, human IgG1 / kappa; Ab7-VL4 variant; also called Ab7-VH4-IgG1 + Ab7-VL4-Kappa

binding result (recombinant human IL-27 [1]): no binding (tested: 30 nM)
B3: Ab7.23 (antibody, human IgG1, kappa, V domains shown)
VH: EVQLVESGGGLVQPGGSLRLSCAASGFTFTSYSMSWVRQAPGKGLEWVSYISYDGGSAYYPDTVKGRFTISRDNSKNTLYLQMNSLRAEDTAVYYCARHGDYDDDDAMDYWGQGTLVTVSS
VL: DIQMTQSPSSLSASVGDRVTITCRASENIYSYLNWYQQKPGKAPKLLVYNAETLTEGVPSRFSGSGSGTDFTLTISSLQPEDFATYYCQHHYGTPLTFGQGTKLEIKR
notes: humanized, human IgG1 / kappa; Ab7-VL4 variant; also called Ab7-VH5-IgG1 + Ab7-VL4-Kappa

binding result (recombinant human IL-27 [1]): no binding (tested: 30 nM)
B4: Ab7.11 (antibody, human IgG1, kappa, V domains shown)
VH: EVQLVESGGGLVQPGGSLRLSCAASGFTFTSYSMSWVRQAPGKGLEWVAYISYDGGSAYYPDTVKGRFTISRDNSKNTLYLQMSSLKSEDTAMYYCARHGDYDDDDAMDYWGQGTLVTVSS
VL: DIQMTQSPSSLSASVGDRVTITCRASENIYSYLNWYQQKPGKAPKLLVYNAETLTEGVPSRFSGSGSGTDFTLTISSLQPEDFATYYCQHHYGTPLTFGQGTKLEIKR
notes: humanized, human IgG1 / kappa; Ab7-VL4 variant; also called Ab7-VH2-IgG1 + Ab7-VL4-Kappa

binding result (recombinant human IL-27 [1]): no binding (tested: 30 nM)
B5: Ab7.15 (antibody, human IgG1, kappa, V domains shown)
VH: EVKLVESGGGLVQPGGSLRLSCAASGFTFTSYSMSWVRQAPGKGLEWVAYISYDGGSAYYPDTVKGRFTISRDNSKKTLYLQMNSLRAEDTAVYYCARHGDYDDDDAMDYWGQGTLVTVSS
VL: DIQMTQSPSSLSASVGDRVTITCRASENIYSYLNWYQQKPGKAPKLLVYNAETLTEGVPSRFSGSGSGTDFTLTISSLQPEDFATYYCQHHYGTPLTFGQGTKLEIKR
notes: humanized, human IgG1 / kappa; Ab7-VL4 variant; also called Ab7-VH3-IgG1 + Ab7-VL4-Kappa
